Experimental data taken from the Human Domainome abundance scans (Beltran et al. 2025).
± gives the uncertainty stated by the source.

B1: Zinc finger MYM-type protein 3, residues 589 to 668; numbered along this chain, Q14202 (parent)
chain: LSCHYCHSLFSGKPEVLDWQDQVFQFCCRDCCEDFKRLRGVVSQCEHCRQEKLLHEKLRFSGVEKSFCSEGCVLLYKQDF

Variants of: B1
Experiment: abundance fitness (aPCA) (normalised: wild type 0, dead -1); higher = more abundant; growth selection in yeast, the domain comes from the species named
Conditions: Homo sapiens

Variant	abundance fitness
LSCHYCASLFSGKPEVLDWQDQVFQFCCRDCCEDFKRLRGVVSQCEHCRQEKLLHEKLRFSGVEKSFCSEGCVLLYKQDF [H7A]	0.154 ± 0.042
LSCHYCISLFSGKPEVLDWQDQVFQFCCRDCCEDFKRLRGVVSQCEHCRQEKLLHEKLRFSGVEKSFCSEGCVLLYKQDF [H7I]	0.088 ± 0.095
LSCHYCESLFSGKPEVLDWQDQVFQFCCRDCCEDFKRLRGVVSQCEHCRQEKLLHEKLRFSGVEKSFCSEGCVLLYKQDF [H7E]	0.158 ± 0.06
LSCHYCFSLFSGKPEVLDWQDQVFQFCCRDCCEDFKRLRGVVSQCEHCRQEKLLHEKLRFSGVEKSFCSEGCVLLYKQDF [H7F]	0.165 ± 0.15
LSCHYCGSLFSGKPEVLDWQDQVFQFCCRDCCEDFKRLRGVVSQCEHCRQEKLLHEKLRFSGVEKSFCSEGCVLLYKQDF [H7G]	0.117 ± 0.043
LSCHYCDSLFSGKPEVLDWQDQVFQFCCRDCCEDFKRLRGVVSQCEHCRQEKLLHEKLRFSGVEKSFCSEGCVLLYKQDF [H7D]	0.226 ± 0.07
LSCHNCHSLFSGKPEVLDWQDQVFQFCCRDCCEDFKRLRGVVSQCEHCRQEKLLHEKLRFSGVEKSFCSEGCVLLYKQDF [Y5N]	0.021 ± 0.071
LSCHECHSLFSGKPEVLDWQDQVFQFCCRDCCEDFKRLRGVVSQCEHCRQEKLLHEKLRFSGVEKSFCSEGCVLLYKQDF [Y5E]	-0.081 ± 0.051
LSCHLCHSLFSGKPEVLDWQDQVFQFCCRDCCEDFKRLRGVVSQCEHCRQEKLLHEKLRFSGVEKSFCSEGCVLLYKQDF [Y5L]	0.082 ± 0.039
LSCHMCHSLFSGKPEVLDWQDQVFQFCCRDCCEDFKRLRGVVSQCEHCRQEKLLHEKLRFSGVEKSFCSEGCVLLYKQDF [Y5M]	0.313 ± 0.047
LSCHRCHSLFSGKPEVLDWQDQVFQFCCRDCCEDFKRLRGVVSQCEHCRQEKLLHEKLRFSGVEKSFCSEGCVLLYKQDF [Y5R]	0.19 ± 0.037
LSCHHCHSLFSGKPEVLDWQDQVFQFCCRDCCEDFKRLRGVVSQCEHCRQEKLLHEKLRFSGVEKSFCSEGCVLLYKQDF [Y5H]	-0.066 ± 0.055
LSCHQCHSLFSGKPEVLDWQDQVFQFCCRDCCEDFKRLRGVVSQCEHCRQEKLLHEKLRFSGVEKSFCSEGCVLLYKQDF [Y5Q]	0.203 ± 0.048
LSCHFCHSLFSGKPEVLDWQDQVFQFCCRDCCEDFKRLRGVVSQCEHCRQEKLLHEKLRFSGVEKSFCSEGCVLLYKQDF [Y5F]	0.095 ± 0.051
LSCHCCHSLFSGKPEVLDWQDQVFQFCCRDCCEDFKRLRGVVSQCEHCRQEKLLHEKLRFSGVEKSFCSEGCVLLYKQDF [Y5C]	0.01 ± 0.055
LSCHGCHSLFSGKPEVLDWQDQVFQFCCRDCCEDFKRLRGVVSQCEHCRQEKLLHEKLRFSGVEKSFCSEGCVLLYKQDF [Y5G]	0.156 ± 0.037
LSCHDCHSLFSGKPEVLDWQDQVFQFCCRDCCEDFKRLRGVVSQCEHCRQEKLLHEKLRFSGVEKSFCSEGCVLLYKQDF [Y5D]	-0.615 ± 0.07
LSCHACHSLFSGKPEVLDWQDQVFQFCCRDCCEDFKRLRGVVSQCEHCRQEKLLHEKLRFSGVEKSFCSEGCVLLYKQDF [Y5A]	0.267 ± 0.039

Variant	abundance fitness
LSCHPCHSLFSGKPEVLDWQDQVFQFCCRDCCEDFKRLRGVVSQCEHCRQEKLLHEKLRFSGVEKSFCSEGCVLLYKQDF [Y5P]	-0.906 ± 0.076
LSCHTCHSLFSGKPEVLDWQDQVFQFCCRDCCEDFKRLRGVVSQCEHCRQEKLLHEKLRFSGVEKSFCSEGCVLLYKQDF [Y5T]	-0.009 ± 0.051
LSCHICHSLFSGKPEVLDWQDQVFQFCCRDCCEDFKRLRGVVSQCEHCRQEKLLHEKLRFSGVEKSFCSEGCVLLYKQDF [Y5I]	-0.061 ± 0.062
LSCHKCHSLFSGKPEVLDWQDQVFQFCCRDCCEDFKRLRGVVSQCEHCRQEKLLHEKLRFSGVEKSFCSEGCVLLYKQDF [Y5K]	0.294 ± 0.046
LSCHYFHSLFSGKPEVLDWQDQVFQFCCRDCCEDFKRLRGVVSQCEHCRQEKLLHEKLRFSGVEKSFCSEGCVLLYKQDF [C6F]	-1.2 ± 0.35
LSCHYQHSLFSGKPEVLDWQDQVFQFCCRDCCEDFKRLRGVVSQCEHCRQEKLLHEKLRFSGVEKSFCSEGCVLLYKQDF [C6Q]	-0.892 ± 0.12
LSCHYGHSLFSGKPEVLDWQDQVFQFCCRDCCEDFKRLRGVVSQCEHCRQEKLLHEKLRFSGVEKSFCSEGCVLLYKQDF [C6G]	-1.05 ± 0.07
LSCHYVHSLFSGKPEVLDWQDQVFQFCCRDCCEDFKRLRGVVSQCEHCRQEKLLHEKLRFSGVEKSFCSEGCVLLYKQDF [C6V]	-0.995 ± 0.077
LSCHYMHSLFSGKPEVLDWQDQVFQFCCRDCCEDFKRLRGVVSQCEHCRQEKLLHEKLRFSGVEKSFCSEGCVLLYKQDF [C6M]	-0.325 ± 0.19
LSCHYDHSLFSGKPEVLDWQDQVFQFCCRDCCEDFKRLRGVVSQCEHCRQEKLLHEKLRFSGVEKSFCSEGCVLLYKQDF [C6D]	-1.01 ± 0.27
LSCHYYHSLFSGKPEVLDWQDQVFQFCCRDCCEDFKRLRGVVSQCEHCRQEKLLHEKLRFSGVEKSFCSEGCVLLYKQDF [C6Y]	-0.828 ± 0.13
LSCHYPHSLFSGKPEVLDWQDQVFQFCCRDCCEDFKRLRGVVSQCEHCRQEKLLHEKLRFSGVEKSFCSEGCVLLYKQDF [C6P]	-0.949 ± 0.13
LSCHYRHSLFSGKPEVLDWQDQVFQFCCRDCCEDFKRLRGVVSQCEHCRQEKLLHEKLRFSGVEKSFCSEGCVLLYKQDF [C6R]	-0.919 ± 0.072
LSCHYHHSLFSGKPEVLDWQDQVFQFCCRDCCEDFKRLRGVVSQCEHCRQEKLLHEKLRFSGVEKSFCSEGCVLLYKQDF [C6H]	-0.821 ± 0.13
LSCHYWHSLFSGKPEVLDWQDQVFQFCCRDCCEDFKRLRGVVSQCEHCRQEKLLHEKLRFSGVEKSFCSEGCVLLYKQDF [C6W]	-0.978 ± 0.12
LSCWYCHSLFSGKPEVLDWQDQVFQFCCRDCCEDFKRLRGVVSQCEHCRQEKLLHEKLRFSGVEKSFCSEGCVLLYKQDF [H4W]	0.079 ± 0.045
LSCYYCHSLFSGKPEVLDWQDQVFQFCCRDCCEDFKRLRGVVSQCEHCRQEKLLHEKLRFSGVEKSFCSEGCVLLYKQDF [H4Y]	0.116 ± 0.059
